Kd and binding signal data for 4 molecules are collected here from publication PMC4067145.

By Kd is commonly meant the equilibrium constant for the complex coming apart. Read a high Kd as weaker binding.

Some results are limits rather than exact numbers.

Series [1] concerns the target T1, U2B″ (human, UniProt P08579 1-225). The experiment in a line: ITC. For orientation: Isothermal titration calorimetry measures the heat released or taken up as one component is titrated into another.
In series [2] the target is T2, U1A;U2A′ LRR domain (human;human, UniProt P09012;P09661 1-282;1-180, |). The experiment in a line: ITC.
T2 sequence (P09012 whole entry, chain 1 of 2, the tested form may be a part): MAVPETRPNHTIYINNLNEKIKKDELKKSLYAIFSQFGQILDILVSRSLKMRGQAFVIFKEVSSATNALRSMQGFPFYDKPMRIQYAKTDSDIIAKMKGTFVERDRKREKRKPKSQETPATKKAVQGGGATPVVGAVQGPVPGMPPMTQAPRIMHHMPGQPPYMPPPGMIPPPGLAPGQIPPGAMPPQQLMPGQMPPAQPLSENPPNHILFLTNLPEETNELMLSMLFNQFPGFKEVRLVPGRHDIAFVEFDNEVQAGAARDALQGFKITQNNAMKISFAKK
T2 sequence (P09661 1-180, chain 2 of 2): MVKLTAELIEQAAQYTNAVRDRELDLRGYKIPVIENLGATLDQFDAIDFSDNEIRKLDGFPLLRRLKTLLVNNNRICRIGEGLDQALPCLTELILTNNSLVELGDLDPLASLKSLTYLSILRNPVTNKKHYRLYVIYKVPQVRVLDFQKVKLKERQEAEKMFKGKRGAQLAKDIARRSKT
For series [3], the target named is T3, U1A (human, UniProt P09012 1-282). The experiment in a line: ITC.
T3 sequence (P09012 whole entry, the tested form may be a part): as the sequence (P09012 whole entry, chain 1 of 2, the tested form may be a part) above
Series [4] deals with U2B″;U2A′ LRR domain (human;human, UniProt P08579;P09661 1-225;1-180, |). The experiment in a line: fluorescence titration.
Sequence of U2B″;U2A′ LRR domain (P08579 whole entry, chain 1 of 2, the tested form may be a part): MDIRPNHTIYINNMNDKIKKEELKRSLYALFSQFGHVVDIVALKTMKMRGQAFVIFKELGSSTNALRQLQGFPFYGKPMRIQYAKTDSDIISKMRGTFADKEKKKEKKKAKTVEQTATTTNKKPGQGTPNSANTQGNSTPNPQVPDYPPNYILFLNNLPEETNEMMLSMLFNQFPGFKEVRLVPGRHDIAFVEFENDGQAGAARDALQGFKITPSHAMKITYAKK
Sequence of U2B″;U2A′ LRR domain (P09661 1-180, chain 2 of 2): as the sequence (P09661 1-180, chain 2 of 2) above
The target in series [5] is T3, U1A. The experiment in a line: fluorescence titration.
The target in series [6] is T1, U2B″. The experiment in a line: fluorescence titration.
Series [7] concerns the target T2, U1A;U2A′ LRR domain. The experiment in a line: fluorescence titration.
Series [8] addresses T2, U1A;U2A′ LRR domain. The experiment in a line: fluorescence titration. This is another data set of the same source.
Series [9] has as its target T3, U1A. The experiment in a line: ITC. The source holds these as a separate data set.
For series [10], the target named is T1, U2B″. The experiment in a line: ITC. This is another data set of the same source.

T1 sequence (P08579 whole entry, the tested form may be a part): as the sequence (P08579 whole entry, chain 1 of 2, the tested form may be a part) above

On to GGGCACAUUGCACCUCGUGUCCAGACUUCGGUC (structured_RNA) [SLII ITC construct], for which the results for the Kd in [1] and in [3] were 92 nM and below 7 nM, respectively. Besides, in [2], the binding signal is 1.4 ± 7.9 alpha (linkage parameter, fold).
Take GGGCCCGGCAUUGCACCUCGCCGGGUCC (structured_RNA) [FAM-SLII (U1 snRNA stemloop II)]: the binding signal was 15.8 ± 1.6 alpha (linkage parameter, fold) in [4] and 7.3 ± 1.3 alpha (linkage parameter, fold) in [7]. Besides, the figures for the dissociation constant Kd in series [5] and in series [6] were 0.33 nM and 15 nM, respectively.
GGGCCCGGUAUUGCAGUACCGCCGGGUCC (structured_RNA) [FAM-SLIV (U2 snRNA stemloop IV)]: the binding signal in [8] was 89 ± 11 alpha (linkage parameter, fold); in [4], 139 ± 49 alpha (linkage parameter, fold). The dissociation constant Kd in series [5] came out at 58 nM; in [6] it was 17 nM.
As for GGAGUUUUCCAGGACGUAUUGCAGUACCUCGUCCUGG (structured_RNA) [SLIV ITC construct], the values for the dissociation constant Kd in series [9] and in series [10] were 100 nM and 2.3 nM, respectively. Also, in series [2], the binding signal was 34 ± 17 alpha (linkage parameter, fold).
